Results taken from article PMC5702613 (Nature Communications, 2017).

B1: Homo sapiens TRAF6 RZ3 (RING domain and first three zinc fingers, residues 50-211) (domain or fragment, UniProt Q9Y4K3 50-211, looked up)
chain: MEEIQGYDVEFDPPLESKYECPICLMALREAVQTPCGHRFCKACIIKSIRDAGHKCPVDNEILLENQLFPDNFAKREILSLMVKCPNEGCLHKMELRHLEDHQAHCEFALMDCPQCQRPFQKFHINIHILKDCPRRQVSCDNCAASMAFEDKEIHDQNCPLA
notes: TNF receptor-associated factor 6 (TRAF6), human, residues 50-211 (RING and ZF1-3), 20.0 kDa, in pET21d; also called HsRZ3; wild-type HsRZ3; source: E. coli BL21 (DE3), purified (HisTrap, size exclusion)
B2: Danio rerio TRAF6 RZ1 (RING and ZF1, residues 50-159) (domain or fragment, UniProt Q6IWL4 50-159, looked up)
chain: MPPDQQGYDVEFDPPLESKYECPICLMGLRSAVQTPCGHRFCDSCIRKSIRDTGQKCPVDNEVLLEEQLFPDNFAKREILSLTVKCSNFGCSEKMELRQLEKHLSQCRFA
notes: TRAF6, Danio rerio, residues 50-159 (RING and ZF1), 13.7 kDa, in pET24b; also called DrRZ1; source: E. coli BL21 (DE3), purified (HisTrap, size exclusion)
B3: Ubc13 (C87K, K92T, K94Q), the E2 moiety of the Ubc13~Ub conjugate (enzyme)
chain: MAGLPRRIIKETQRLLAEPVPGIKAEPDESNARYFHVVIAGPQDSPFEGGTFKLELFLPEEYPMAAPKVRFMTKIYHPNVDKLGRIKLDILTDQWSPALQIRTVLLSIQALLSAPNPDDPLANDVAEQWKTNEAQAIETARAWTRLYAMNNI
modifications: isopeptide-linked to ubiquitin (C87K allows the stable isopeptide link)
notes: Ubc13 (also called Ube2N), E2 enzyme, with C87K, K92T and K94Q; Stands in the structures only as the Ubc13 moiety of the conjugate m4; also called Ube2N; not shown: GST, N-terminal, cleaved
B4: Danio rerio TRAF6 RZ3 (residues 50-213) (domain or fragment, UniProt Q6IWL4 50-213, looked up)
chain: MPPDQQGYDVEFDPPLESKYECPICLMGLRSAVQTPCGHRFCDSCIRKSIRDTGQKCPVDNEVLLEEQLFPDNFAKREILSLTVKCSNFGCSEKMELRQLEKHLSQCRFATAPCPQCQESVPISHLDEHKSQHCLQRIMTCPDCAGSFVYAVKQNHEQFCPFAN
notes: TRAF6, Danio rerio, residues 50-213 (RING and ZF1-3), 19.7 kDa, in pET24b; also called DrRZ3; D. rerio RZ3 TRAF6; source: E. coli BL21 (DE3), purified (HisTrap, size exclusion)

Experiments:
[1] = target: T1, isopeptide-linked Ubc13-ubiquitin conjugate (Ubc13 C87K, K92T, K94Q linked to wild-type ubiquitin) (UniProt P61088 1-152; P0CG48 1-76, C87K | K92T | K94Q, isopeptide-linked to ubiquitin (C87K allows the stable isopeptide link) | isopeptide-linked to Ubc13); assay: pull-down; GST-fused Uev1A on resin mixed with TRAF6, Ubc13 and Ubc13~Ub conjugates; PBS, 0.2% TWEEN 20, 1 mM DTT, 4 °C, 1 h; Coomassie-stained SDS-PAGE; conditions: both partners purified
T1 construct: Ubc13 (also called Ube2N), E2 enzyme, with C87K, K92T and K94Q; ubiquitin, wild-type, expressed untagged; Two chains joined covalently by an isopeptide bond; also called Ubc13~Ub conjugate; source: proteins from E. coli BL21 (DE3); conjugated in vitro with E1 and ATP, purified (Superdex 75); not shown: GST, N-terminal, cleaved

[2] = target: the molecule itself; assay: crystal structure; DrRZ1-Ubc13~Ub complex, 3.4 Å, C222(1); sodium citrate, 100 mM Bis-Tris propane, 17-23% PEG 3350
[3] = target: T1, isopeptide-linked Ubc13-ubiquitin …; assay: as above; conditions: both partners purified
[4] = target: B3; assay: as above; conditions: both partners purified
[5] = target: T2, ubiquitin (wild-type), the ubiquitin moiety of the Ubc13~Ub conjugate (UniProt P0CG48 1-76, isopeptide-linked to Ubc13); assay: as above; conditions: both partners purified
T2 construct: ubiquitin, wild-type, expressed untagged; Stands in the structures only as the ubiquitin moiety of the conjugate m4; In the activity assays labelled or mutated ubiquitins (Cy3-Met-Cys-ubiquitin K63R, D77 ubiquitin) were used; source: E. coli BL21 (DE3), untagged, purified (HiTrap SP, Superdex 75)

[6] = target: B4; assay: crystal structure; DrRZ3-Ubc13~Ub complex, 3.9 Å, P4(2)2(1)2; 100-200 mM Na/K tartrate, 11-15% PEG 3350, 100 mM Bis-Tris propane pH 7.5; conditions: both partners purified
[7] = target: T1, isopeptide-linked Ubc13-ubiquitin …; assay: SEC; DrRZ3 and Ubc13~Ub at 250 µM, alone or mixed, Superdex 200 10/300, 20 mM Tris-HCl pH 7.5, 150 mM NaCl; fractions on 16% SDS-PAGE; conditions: both partners purified
[8] = target: the molecule itself; assay: crystal structure; DrRZ3-Ubc13~Ub complex, 3.9 Å, P4(2)2(1)2; 100-200 mM Na/K tartrate, 11-15% PEG 3350, 100 mM Bis-Tris propane pH 7.5
[9] = target: T2, ubiquitin (wild-type), the ubiquitin …; assay: as above; conditions: both partners purified

B1
binding result [1]: binds

B2
stoichiometry N [2]: 2
binding result [3]: binds
binding result [4]: binds
binding result [5]: binds

B3
binding result [5]: binds
binding result [6]: binds

B4
binding result [7]: binds
stoichiometry N [8]: 2
binding result [9]: binds
